Data taken from a protein production outcome set (Wang et al. 2014).

Test: label from the status in PepcDB records
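Also: failed if final PepcDB status was selected cloned or expressed and not failed if soluble or beyond.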

Sequence	protein production
MKYEYPAELPVSAARDEIASAVKRSQVVIVSGQTGSGKTTQLPKILLELGRGTHGKQIVHTQPRRIAARTVAERIASEMGVKLGDEVGYQVRFTDESSPGTRLRVVTDGILLAQIQRDPKLTRYDTIIIDEAHERSLNIDFLLGYLTALLPQRRDLKLIITSATIDSVKFQEHFEHALHEKVPVIEVSGRTFPVQVVYEPLGTAPALMREVPGFAVGARPGDADYDELASAIAESDSDRPRGRSGASYADDGITDMPTAVARACAELVIHSSHERGPRDILVFASGERDIHEFEAALRHHYGPRADDMRRPDAIEIMPLFARLSAADQHKVFESHLHQRIVIATNVAETSLTVPGIRYVVDPGSARISRYSKTAKVQRLPIEPISQASADQRSGRCGRVADGIAIRLYSREDYETRPRFTEPEILRTSLGAVVLHMLSVGVARTAEDVTNFGFIDPPDMKAVSDGFNELTELKAIGRKRGEVTLTHTGRQLARIPIDVRLGRMVIEAAKTGSPNLLAQVLVVVAFLSLQDPRERPDDKREDADRIHNRYADETSDFLTALNIWDRVFQADGDPSNNALRRICKTEYFSWLRMRQWKDLVSQLRQMCKELKFKVGDPLPASRPGLEIRQLPLNQQAAHSLCCAWDADGIHKSMLAGLLSMMGMQVVREPKASDFAGLTGSARARAMKRAQKQSKNDYQGARGTRFALFPASAVAKKTPSWVMSTELVETSRLWARYSAAIDPAWAEPLAGQLTRTTYAEPHWSGSRGSAVATARVLLYGLPIVQDRAVQWGRINPLEARDFLIRQGLVEGDIQQRFSYDDFVGKNRDILEDAADDASRTRQLADTVSDEDLFDFYNAVIPNDVTSVADLAKWWKSEHDRQPNLLDFDPAKVERLASSDSVSLDDYPDHWHTTGSDGQPIDLRLSYVYDPADPADGVTVHVPLKALSRITPDQFTWNVPGLLDELILSMIKALPKQLRVQFVPAPDAARAIRDWIDEHYPDLPGSGSQQKPNLPPVDEDGTTVGWPDLAHVFTKAAIATKGAQIHPEVLGPELVERLSPYLRVTFSVEQQLPAGKHPRGRRHARGPIKVLGVSKDLKALQRKFAAQAEASARQMVKKQADQAGEQGKLVSQANLLHKAGATTESRATMLWRGALDALRLPAERISSRWLGTEALMLASAPYKSTKDLVEDLQLATVKRLMPNVDRLSDDEALANAVLDVREVYEDTVYQVAHDVIAVLKAYAEVDKATGGKADLPMLSVLQSIRDHIATLVYPGFIGRTPPDALKSLSRYLRADLSRLNKAKTDKNRDVKWAWQADEARQVVDKALARAKAEPAGPKHEALMKQAEQARWMLEEFYVSLWAQELGTKGPASLNRIKKALA	failed
MKNFLETIEDMILIINREGRLLYANTAVPKKLGYPHEELMSMHILTITSAGKMAEGEKILAELFAGKKESLPLSLEKKEGTSIPAKARIWQGKWHNEPCLFAIIKDLSKEERALEHHHHHH	not failed
MSSLTARWHRSIQEIPEQHWQALVSDHAIPFYRWSWLEALESSGSIIPEQGWQPLHLALWRGDVPIAVAPLYLKGHSYGEFVFDQTFARLAGDLGLRYYPKLLGMSPVSPVLGYRFHVLPGEDEAELTAVLLRAIDAFCEHNSILSCNFLYVDPQWRPLAEAAGCATWLNQQSLWSRGDDQSFDDYLNGFNANQRRNIKRERKAVAKAGLTVTPLTGEQLDLELFQIMHGFYEQHCARWGPWGSKYLEQGFFEALAGLHREQVVLFSAHRGDPREPVAMSMCVRDDHHLWGRYWGSEEEIDCLHFEVCYYAPIEWAISQGIDSFDPGAGGSHKRRRGFVARPHASLHRWYQPQMDGLIRAWLPKVNGLMLEEIEAINAELPFKADAPSLSL	failed
MNSTEITQNTDVPSHFRSIKTFVLRTGRMTEGQKRNYEAFYQKWCIPYTESPIDFQTLFQNDNPVIIEIGFGMGTATAQIAEDNPDKNYLGIEVFKAGVGKLLGEIEEKKLNNLRIIEHDAIEVLENMINNESVDGFHIFFPDPWQKKRNHKRRLVRRPRTDLLSKKLKDGGYIYMVTDWENYAEDAFEQLSETPNLKSKYEKFAPSQSWRPTTKFEKKGLKKEHVINELIFEKD	failed
MSINIDSGQDSDQEHDDVMYPQVLPFVLIHAGCLAAIWSGVSWQAVAICVALYWLRMFGITAGYHRYFSHRAYATSRAFQFILAFLAQSSAQKSVLWWAAKHRHHHLHSDTAQDVHSPRHKGFVYSHLGWIFYRQHDATDLVKVSDLASYPELMWLHRLELLPAVVLAGLCFLIAGWSGLVVGFMWSTVVLYHATFCINSLAHVHGRRRYVTGDDSRNNWLLALLTMGEGWHNNHHAYQASARQGFYWYEVDLTYYALVALSWLGIVWDLKLPPRQVLRNEHRLGSRVVKQAAEQLAARFDPEHIALAIRTSIHETELSVRDALSLLQHRADLRLSSMPTREQLLAEAQRMFAKTISLDDIVDRAYELLHDSVGFLLATPALSANTNAKSGI	failed
DGRIFKMFIEHLEFEKGLDAFSQSWIKALEDSEFLAILRLLFHHIVTSESAHEFAANGIDRLYKMVESQFGSGGDKELEWLIGRSLIQMSK	not failed
MSEIIIQNLISPVVLFFLLGIIAATFKSDLQFPKGLTEALSMYLLIAIGIKGGIELSHYHLEAVIGPVIGTIFLGMLIPVIVLMITRLFMKVDLKNSIALAATYGSTSIVTYGAAVSFLEKSGTTYEGFMNAMVVLKESPAILVSLLLLSIIERQQAVPTTLSSKRVGIVSGHQGLIDKEVLKESFFGKSIILLLGSLIIGLVVGERAIPMVQPLFIDLYQSVLILFLLYMGLTVGERLPEVKKHGIKLILFGVLTPILLGALGVLVGTLAGLSVGGATLMGILAGSASYIAAPAALRTSVPEANPSIYLGLSLGVTFPFNLIFGIPLYFEFAKLLH	failed
MSDLRTVPKHTALLIGLMIFGLFFGAGNLIFPVELGRLAGHSAPVTAAGFLVTAVGIPIVAIISSAVSGCSSVHGMTSRVSSQYATIFTCLLYLTIGPAFAIPRTATVSYEVGVAPFIQGHGPALPIFTIVFFAMTLVAALKPGKLMDWVGRYLTPLFLALLAILIVATLIHPMPTVANRPPQPPYDHQPFMHGFLDGYNTMDALASLAFAIVIIEAINQRGSTGRRDVTHITIRAGLVATIPLTLVYVSLAWLGRTSTLVVPNAANGGVVLAGVSRHYYGTAGQVLIAAIVLVACLKTAIGLVVACAEIFRRMFPAGPSVRSWVVIFSVASAIIANAGLTTIIAWSTPVLMFLYPLAITAIILGLLDPWLGASRLPHRIMTGCVVLAALPDLVRALPIQGSGTRAITHVADMVLPWASDGLGWGLPAIIGLAAGWGASLILGRPRRWGTSS	failed
SAMAQKEEGHEAAAAEAKKETDLAHVDQVETFVGKEKYYVVKGTDKKGTALYVWVPADKKAKILSKEAKEGISEDKAAKIIKDEGLVSKQKEVHLAREGNVLLWEVTYLDKEGQYSLSYVDFTTGKILKNITP	not failed
GGTPSPQLTSRQEIAVVPKVFDASTMFLEAQMASIQILEQENKKIGYVHIWSNAADPYQQELQNELIYGRLRNADGLILDLRDGWGGGDISYLNIFTAKQSPSVTHVQRNGRRYTYNYQWKKPVVMLVNEGSRSSKEILAFNFQQNQIGPVLGTKTTGAVVAGRPYIMQDGSLLYVAVADVFLNGNQRLEGKGVTPDINVPFSLEYAQGVDPQKQTAIETLLKAL	failed
ADGILGVDKLGHFIFANESATKITGYSEEQILSSDLISLFAGDNKENLTFEDTEVYKAIQSKEVIRISNEYVLMSGARELPLEYSISPVEDDE	failed
IDGIFIMDAEGHYLDVNPAICSAIGYTRDEFLALDWGVLSRGVDSGWAAASLARIVGGEPLREERTVWTRNGDQLTVELSAHLLPD	failed
MAKGVRVGLKNIHFAKILTEDENGVTYDTPVKIGNAIEASITPNTNSETLYADDGPSEVESSLGETEVEIGIDQLSTTAQALLLGHTILSDGVLEKKETDIAPYGALLFESATTGGKSKLYALYKGRFQPQEESFATKGLEHHHHHH	not failed
MKASCSSFTCQSADGKHFLGRTYDEYGDISANKVSIIPRGYEISLTFMGNKENNKQIVKYAIVGMNVDMFDTPFLTEGMNEHGLMISLLFFPHFTQYNSKSNAEYDVNLGLLLPFVLGKCKNIEEAVALLQKINPVDEPESQMELPCHYLISDKTGESIVVEPLADGLKIYRNEMGVLTNSPTYEWHKINLRNYLGISNLAKETQVVNGYKIEELGEGTGYLGIPGDYTPVSRFVRLAFSKNYMPEPQNEIDAVNKMFNIFETVDVPEGVIYTPPLRTPYHEKTLCTSVMCSESLKYYFSTSTNCRICCVDLNKAMNNNSKELINIDIPFEQDILTLN	failed
SNGTPLMTPTELIERQASGEQLQIIDTRSKKQYEISCVKGAIHIPLAEIRDRVAELDKNVTTITYCNKGVTGNAAQNILLNEGFKEVYNLSGGNKNY	failed
MHSTIGRLLEQTADAYPDRDAVVYPDRNIRYTYAQFDSLCRQTAKGLMRMGIGKGDHVAIWASNISEWLAVQFATAKIGAVLVTVNTNYQAHELDYLLKQSDAAALIIMDSYRGTSYPDIVNSLIPELQEAKPGQLKSERYPFLKTLIYIGNKRLSGMYHWDDTEILAKTVTDAELEERMNSLDKDNVINMQYTSGTTGFPKGVMLTHFNVINNAANIAECMALTSQDRMCIPVPFFHCFGCVLGVLACVSVGAAMIPVQEFDPVTVLKTVEKEKCTVLHGVPTMFIAELHHPDFDAYDLSTLRTGIMAGSPCPSEVMKAVIERMGMKDITIAYGQTEASPVITQTRANDSFIRRVETTGRALPHTEVKIVEPGTCQEVQRGMQGELCTRGYHVMKGYYKDKDATRKAINHDGWLFTGDLAVMDEDGYCRITGRLKDMLIRGGENIYPREIEEFLYQHPAVLDVQVVGVPDAKFGEEAAAWIKLKDGKSVSPDELKAYCKGKIARHKIPRYVIFTDDYPMTAS	failed
MKTAWLLLLLLGVGALGGCAVNPATGKSDFVMMSEQQELGMGARYNQEILKQFPRYNDEKLQAYVQRVGERVARSSHRSNLQYHFTVIDSPDINAFALPGGYIYIHRGLIAYLGSEAELAAVLGHEVGHVTARHSVRQQSQASAWNILGQAVAIGTGVGAAGDLANVLGTAFVRGYGRDMELEADGLGAQYLARAGYDPTAMIQVVRVLKNQEDFAREEAARNGQAVQAGGYHGLFDTHPDNDRRLQEVVGPARQLANGQQEVGREVFLRHLEGMPFGDSASAGVRRGQNFYHAELDFTLSYPAGWKILNQPSALLGYPADEQSFIGMKLVPHDSRLTPAEFLRKNAGQRLAQEESLKQAGLNGYTAVVPGNPARRVAVIYQGDRAYLFVGVVKVGSLETQDDRFLSVIRSFRPLRDKERALAQPRRLHLVQVKAGQTLEQLAAGGEGSLSDSVARLRLLNDLYPSGEPRPGDWLKVVR	failed
MPFETPDLLGPSEPVPDRLSANEFLLRPLTPTDAEIDYEAVTESGDRLHGIFGPDDEWPTGLTPEQNRIDVCWHYREHQRRDAFTYGVFDPAETTELGCLYVQPTRIEGYDAAVYYWTAAAAVERGLADEIETACREWVATEWPFGRVAYPGRDVSWQAVPAAGTEGD	failed
MAISKALIASLLISLLVLQLVQADVENSQKKNGYAKKIGFRGGRGCVTERAGLAATGATVCLRVRTETTTSASATLASPPTVDAASAHKKKQSS	failed
MATLGANASLYSEQHRITYYECDRTGRATLTTLIDIAVLASEDQSDALGLTTEMVQSHGVGWVVTQYAIDITRMPRQDEVVTIAVRGSAYNPYFAYREFWIRDADGQQLAYITSIWVMMSQTTRRIVKILPELVAPYQSEVVKRIPRLPRPISFEATDTTITKPYHVRFFDIDPNRHVNNAHYFDWLVDTLPATFLLQHDLVHVDVRYENEVKYGQTVTAHANILPSEVADQVTTSHLIEVDDEKCCEVTIQWRTLPEPIQ	not failed
